*1 amine or outer side, *2 acyl side, *3 side chain or, on linkers, in order; H or OH if unused. Bridges are numbered along the chain shown (N, C = ends). Primed or numbered codes have the meaning given here. [ ]: non-standard residue; d: D form. PyrS2(6) = (S)-3-amino-1-((pent-4-en-1-yloxy)carbonyl)pyrrolidine-3-carboxylic acid, stapled with another olefin-containing amino acid residue through the olefin group, O=C(OCCCC=[*:3])N1CC[C@@](N[*:1])(C(=O)[*:2])C1; B5(4) = 2-amino-2-(pent-4-en-1-yl)hept-6-enoic acid, stapled through each of its two olefin groups with other olefin-containing amino acid residues, O=C(C(CCCC=[*:3])(CCCC=[*:4])N[*:1])[*:2]; PyrS2 = (S)-3-amino-1-((pent-4-en-1-yloxy)carbonyl)pyrrolidine-3-carboxylic acid, olefin staple residue, C=CCCCOC(=O)N1CC[C@@](N[*:1])(C(=O)[*:2])C1; PyrS2(3) = (S)-3-amino-1-((pent-4-en-1-yloxy)carbonyl)pyrrolidine-3-carboxylic acid, olefin residue, C=CCCCOC(=O)N1CC[C@@](N[*:1])(C(=O)[*:2])C1; PyrS2(5) = (S)-3-amino-1-((pent-4-en-1-yloxy)carbonyl)pyrrolidine-3-carboxylic acid, C=CCCCOC(=O)N1CC[C@@](N[*:1])(C(=O)[*:2])C1; B5(5) = 2-amino-2-(pent-4-en-1-yl)hept-6-enoic acid (two olefin arms), C=CCCCC(CCCC=C)(N[*:1])C(=O)[*:2]; B5(3) = 2-amino-2-(pent-4-en-1-yl)hept-6-enoic acid, two olefin arms, C=CCCCC(CCCC=C)(N[*:1])C(=O)[*:2]; 2F3MeF″ = aromatic residue, Cc1cccc(C[C@H](N[*:1])C(=O)[*:2])c1F; Phe(3-COOH) = N[C@@H](Cc1cccc(C(=O)O)c1)C(=O)O; Bta = N[C@@H](Cc1csc2ccccc12)C(=O)O; αAllylPro = C=CC[C@@]1(C(=O)O)CCCN1; tBuAla = CC(C)(C)C[C@H](N)C(=O)O; 3Thi = N[C@@H](Cc1ccsc1)C(=O)O; Thr(ol) = C[C@@H](O)[C@H](N)CO; TriAzLys(3) = not defined here; 2F3MeF(4) = Phe analogue; Orn = NCCC[C@H](N)C(=O)O; AsnR = not defined here; GlnR = not defined here; sAla = not defined here; B5 = not defined here; Aib = CC(C)(N)C(=O)O
Assays:
[1] = biological target: beta-catenin (human); assay: cell-based or functional assay
[2] = biological target: beta-catenin (human); assay: fluorescence polarization

Sequence of beta-catenin (human) (B6V8E6 146-665 limits assumed): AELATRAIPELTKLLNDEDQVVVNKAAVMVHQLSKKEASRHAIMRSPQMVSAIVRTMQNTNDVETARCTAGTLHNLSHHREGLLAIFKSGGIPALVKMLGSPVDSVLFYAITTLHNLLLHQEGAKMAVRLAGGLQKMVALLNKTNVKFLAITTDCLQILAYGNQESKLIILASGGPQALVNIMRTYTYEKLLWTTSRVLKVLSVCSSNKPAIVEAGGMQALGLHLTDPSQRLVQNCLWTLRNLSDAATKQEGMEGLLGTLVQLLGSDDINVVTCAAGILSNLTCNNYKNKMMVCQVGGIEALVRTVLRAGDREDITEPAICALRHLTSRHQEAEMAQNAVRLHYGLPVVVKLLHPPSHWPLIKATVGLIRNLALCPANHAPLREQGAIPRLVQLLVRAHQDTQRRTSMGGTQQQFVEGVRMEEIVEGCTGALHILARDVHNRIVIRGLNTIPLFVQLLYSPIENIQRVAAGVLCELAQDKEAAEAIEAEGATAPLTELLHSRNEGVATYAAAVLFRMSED

B1: I-39 (peptide)
peptide: Ac-[αAllylPro]D[tBuAla][B5(5)]D[Phe(3-COOH)]AAF[Orn][PyrS2(5)][3Thi][Bta][AsnR]-NH2
modifications: bridge 10-14; not fully specified (bridges); printed as Ac-PL3-Asp-Npg-B5-Asp-3COOHF-Ala-Ala-Phe-Orn*3-PyrS2-3Thi-BztA-AsnR*3-NH2; reading uncertain
A NanoBRET Abs IC50 [1] of over 10 µM and an IC50 [2] of under 0.05 µM were found for B1 in this work.

B2: I-62 (peptide)
peptide: Ac-[αAllylPro]D[tBuAla][B5(3)]D[Phe(3-COOH)]AAFK[PyrS2(3)][3Thi][Bta][GlnR][Thr(ol)]
modifications: bridge 10-14; not fully specified (bridges); printed as Ac-PL3-Asp-Npg-B5-Asp-3COOHF-Ala-Ala-Phe-Lys*3-PyrS2-3Thi-BztA-GlnR*3-Throl; reading uncertain
A NanoBRET Abs IC50 (bin >3.0 uM) [1] of under 10 µM and an IC50 [2] of under 0.05 µM were found for B2 in this work.

B3: I-33 (peptide)
peptide: Ac-[αAllylPro]D[tBuAla][B5(4)]D[Phe(3-COOH)]AAF[GlnR][PyrS2(6)][3Thi][Bta]K-NH2
modifications: bridge 10-14; not fully specified (bridges); printed as Ac-PL3-Asp-Npg-B5-Asp-3COOHF-Ala-Ala-Phe-GlnR*3-PyrS2-3Thi-BztA-Lys*3-NH2; reading uncertain
A NanoBRET Abs IC50 (bin >3.0 uM) [1] of under 10 µM and an IC50 [2] of under 0.05 µM were found for B3 in this work.

B4: I-31 (peptide)
peptide: Ac-[αAllylPro]D[tBuAla][B5(4)]D[Phe(3-COOH)][TriAzLys(3)]AF[sAla][PyrS2(6)][2F3MeF(4)][Bta]Q-NH2
modifications: triazole 7-10; not fully specified (bridges); printed as Ac-PL3-Asp-Npg-B5-Asp-3COOHF-TriAzLys*3-Ala-Phe-sAla*3-PyrS2-2F3MeF-BztA-Gln-NH2; reading uncertain
A NanoBRET Abs IC50 [1] of over 10 µM and an IC50 [2] of under 0.05 µM were found for B4 in this work.

B5: I-29 (peptide)
peptide: Ac-[αAllylPro]D[tBuAla][B5(4)]DD[TriAzLys(3)]AF[sAla][PyrS2(6)][3Thi][Bta]Q-NH2
modifications: triazole 7-10; not fully specified (bridges); printed as Ac-PL3-Asp-Npg-B5-Asp-Asp-TriAzLys*3-Ala-Phe-sAla*3-PyrS2-3Thi-BztA-Gln-NH2; reading uncertain
A NanoBRET Abs IC50 [1] of over 10 µM and an IC50 [2] of under 0.05 µM were found for B5 in this work.

B6: I-61 (peptide)
peptide: Ac-[αAllylPro]D[tBuAla][B5(3)]D[Phe(3-COOH)]QAFK[PyrS2(3)][2F3MeF″][Bta][AsnR]A-NH2
modifications: bridge 10-14; not fully specified (bridges); printed as Ac-PL3-Asp-Npg-B5-Asp-3COOHF-Gln-Ala-Phe-Lys*3-PyrS2-2F3MeF-BztA-AsnR*3-Ala-NH2; reading uncertain
A NanoBRET Abs IC50 [1] of over 10 µM and an IC50 [2] of under 0.05 µM were found for B6 in this work.

B7: I-34 (peptide)
peptide: Ac-[αAllylPro]D[tBuAla][B5(5)]D[Phe(3-COOH)]AAFK[PyrS2(5)][3Thi][Bta][AsnR]-NH2
modifications: bridge 10-14; not fully specified (bridges); printed as Ac-PL3-Asp-Npg-B5-Asp-3COOHF-Ala-Ala-Phe-Lys*3-PyrS2-3Thi-BztA-AsnR*3-NH2; reading uncertain
A NanoBRET Abs IC50 (bin >3.0 uM) [1] of under 10 µM and an IC50 [2] of under 0.05 µM were found for B7 in this work.

B8: I-60 (peptide)
peptide: Ac-[αAllylPro]D[tBuAla][B5(3)]D[Phe(3-COOH)]QAFK[PyrS2(3)][2F3MeF″][Bta][GlnR]A-NH2
modifications: bridge 10-14; not fully specified (bridges); printed as Ac-PL3-Asp-Npg-B5-Asp-3COOHF-Gln-Ala-Phe-Lys*3-PyrS2-2F3MeF-BztA-GlnR*3-Ala-NH2; reading uncertain
A NanoBRET Abs IC50 (bin >3.0 uM) [1] of under 10 µM and an IC50 [2] of under 0.05 µM were found for B8 in this work.

B9: I-55 (peptide)
peptide: Ac-[αAllylPro]D[tBuAla][B5(3)]D[Phe(3-COOH)]AAFK[PyrS2(3)][2F3MeF″][Bta][GlnR]-NH2
modifications: bridge 10-14; not fully specified (bridges); printed as Ac-PL3-Asp-Npg-B5-Asp-3COOHF-Ala-Ala-Phe-Lys*3-PyrS2-2F3MeF-BztA-GlnR*3-NH2; reading uncertain
A NanoBRET Abs IC50 (bin >1.5 uM) [1] of under 3 µM and an IC50 [2] of under 0.05 µM were found for B9 in this work.

B10: I-64 (peptide)
peptide: Ac-[αAllylPro]D[tBuAla][B5(3)]D[Phe(3-COOH)]AAFK[PyrS2(3)][3Thi][Bta][GlnR]-Prool
modifications: bridge 10-14; not fully specified (bridges); printed as Ac-PL3-Asp-Npg-B5-Asp-3COOHF-Ala-Ala-Phe-Lys*3-PyrS2-3Thi-BztA-GlnR*3-Prool; reading uncertain
A NanoBRET Abs IC50 (bin >1.5 uM) [1] of under 3 µM and an IC50 [2] of under 0.05 µM were found for B10 in this work.

B11: I-57 (peptide)
peptide: Ac-[αAllylPro]D[tBuAla][B5(3)]D[Phe(3-COOH)]AAFK[PyrS2(3)][2F3MeF″][Bta][GlnR]A-NH2
modifications: bridge 10-14; not fully specified (bridges); printed as Ac-PL3-Asp-Npg-B5-Asp-3COOHF-Ala-Ala-Phe-Lys*3-PyrS2-2F3MeF-BztA-GlnR*3-Ala-NH2; reading uncertain
A NanoBRET Abs IC50 (bin >1.5 uM) [1] of under 3 µM and an IC50 [2] of under 0.05 µM were found for B11 in this work.

B12: I-42 (peptide)
peptide: Ac-[αAllylPro]D[tBuAla][B5(5)]D[Phe(3-COOH)]AAFK[PyrS2(5)][3Thi][Bta][GlnR]A-NH2
modifications: bridge 10-14; reading uncertain; also: PL3/B5/PyrS2 staple links not placed, printed as Ac-PL3-Asp-Npg-B5-Asp-3COOHF-Ala-Ala-Phe-Lys*3-PyrS2-3Thi-BztA-GlnR*3-Ala-NH2
A NanoBRET Abs IC50 (bin >1.5 uM) [1] of under 3 µM and an IC50 [2] of under 0.05 µM were found for B12 in this work.

B13: I-37 (peptide)
peptide: Ac-[αAllylPro]D[tBuAla][B5(5)]D[Phe(3-COOH)]AAF[Orn][PyrS2(5)][3Thi][Bta][GlnR]-NH2
modifications: bridge 10-14; not fully specified (bridges); printed as Ac-PL3-Asp-Npg-B5-Asp-3COOHF-Ala-Ala-Phe-Orn*3-PyrS2-3Thi-BztA-GlnR*3-NH2; reading uncertain
A NanoBRET Abs IC50 (bin >3.0 uM) [1] of under 10 µM and an IC50 [2] of under 0.05 µM were found for B13 in this work.

B14: I-63 (peptide)
peptide: Ac-[αAllylPro]D[tBuAla][B5(3)]D[Phe(3-COOH)]AAFK[PyrS2(3)][3Thi][Bta][GlnR][Thr(ol)]
modifications: bridge 10-14; not fully specified (bridges); printed as Ac-PL3-Asp-Npg-B5-Asp-3COOHF-Ala-Ala-Phe-Lys*3-PyrS2-3Thi-BztA-GlnR*3-Throl; reading uncertain
A NanoBRET Abs IC50 (bin >3.0 uM) [1] of under 10 µM and an IC50 [2] of under 0.05 µM were found for B14 in this work.

B15: I-32 (peptide)
peptide: Ac-[αAllylPro]D[tBuAla][B5(4)]D[Phe(3-COOH)]AAFK[PyrS2(6)][3Thi][Bta][GlnR]-NH2
modifications: bridge 10-14; not fully specified (bridges); printed as Ac-PL3-Asp-Npg-B5-Asp-3COOHF-Ala-Ala-Phe-Lys*3-PyrS2-3Thi-BztA-GlnR*3-NH2; reading uncertain
A NanoBRET Abs IC50 [1] of under 1.5 µM and an IC50 [2] of under 0.05 µM were found for B15 in this work.

B16: I-30 (peptide)
peptide: Ac-[αAllylPro]D[tBuAla][B5(4)]D[Phe(3-COOH)][TriAzLys(3)]AF[sAla][PyrS2(6)][3Thi][Bta]Q-NH2
modifications: triazole 7-10; not fully specified (bridges); printed as Ac-PL3-Asp-Npg-B5-Asp-3COOHF-TriAzLys*3-Ala-Phe-sAla*3-PyrS2-3Thi-BztA-Gln-NH2; reading uncertain
A NanoBRET Abs IC50 [1] of over 10 µM and an IC50 [2] of under 0.05 µM were found for B16 in this work.

B17: I-66 (peptide)
peptide: Ac-[αAllylPro]D[tBuAla][B5]D[Phe(3-COOH)][Aib]AFK[PyrS2][3Thi][Bta][GlnR]A-NH2
modifications: staple 1-4, 4-11; lactam 10-14; not fully specified; printed as Ac-PL3-Asp-Npg-B5-Asp-3COOHF-Aib-Ala-Phe-Lys*3-PyrS2-3Thi-BztA-GlnR*3-Ala-NH2; reading uncertain
An AXIN2 expression IC50, COLO320DM cells [1] of 0.3 µM, an AXIN2 expression IC50, DLD1 cells [1] of 1.6 µM and an SP5 expression IC50, DLD1 cells [1] of 1.3 µM were found for B17 in this work. The IC50 [2] was under 0.05 µM.

B18: I-43 (peptide)
peptide: Ac-[αAllylPro]D[tBuAla][B5(5)]D[Phe(3-COOH)]AAF[GlnR][PyrS2(5)][3Thi][Bta]KA-NH2
modifications: bridge 10-14; reading uncertain; also: PL3/B5/PyrS2 staple links not placed, printed as Ac-PL3-Asp-Npg-B5-Asp-3COOHF-Ala-Ala-Phe-GlnR*3-PyrS2-3Thi-BztA-Lys*3-Ala-NH2
A NanoBRET Abs IC50 (bin >1.5 uM) [1] of under 3 µM and an IC50 [2] of under 0.05 µM were found for B18 in this work.

B19: I-38 (peptide)
peptide: Ac-[αAllylPro]D[tBuAla][B5(5)]D[Phe(3-COOH)]AAF[GlnR][PyrS2(5)][3Thi][Bta][Orn]-NH2
modifications: bridge 10-14; not fully specified (bridges); printed as Ac-PL3-Asp-Npg-B5-Asp-3COOHF-Ala-Ala-Phe-GlnR*3-PyrS2-3Thi-BztA-Orn*3-NH2; reading uncertain
A NanoBRET Abs IC50 (bin >3.0 uM) [1] of under 10 µM and an IC50 [2] of under 0.05 µM were found for B19 in this work.

B20: I-56 (peptide)
peptide: Ac-[αAllylPro]D[tBuAla][B5(3)]D[Phe(3-COOH)]AAFK[PyrS2(3)][2F3MeF″][Bta][AsnR]-NH2
modifications: bridge 10-14; not fully specified (bridges); printed as Ac-PL3-Asp-Npg-B5-Asp-3COOHF-Ala-Ala-Phe-Lys*3-PyrS2-2F3MeF-BztA-AsnR*3-NH2; reading uncertain
A NanoBRET Abs IC50 (bin >3.0 uM) [1] of under 10 µM and an IC50 [2] of under 0.05 µM were found for B20 in this work.
